Molecular target: T1, CD19 (human, UniProt P15391 20-556)
T1 construct: whole, on cells; also called CD19 on NALM6, Raji, K562-CD19 and K562-CD19/CD22 cells
T1 sequence (looked up): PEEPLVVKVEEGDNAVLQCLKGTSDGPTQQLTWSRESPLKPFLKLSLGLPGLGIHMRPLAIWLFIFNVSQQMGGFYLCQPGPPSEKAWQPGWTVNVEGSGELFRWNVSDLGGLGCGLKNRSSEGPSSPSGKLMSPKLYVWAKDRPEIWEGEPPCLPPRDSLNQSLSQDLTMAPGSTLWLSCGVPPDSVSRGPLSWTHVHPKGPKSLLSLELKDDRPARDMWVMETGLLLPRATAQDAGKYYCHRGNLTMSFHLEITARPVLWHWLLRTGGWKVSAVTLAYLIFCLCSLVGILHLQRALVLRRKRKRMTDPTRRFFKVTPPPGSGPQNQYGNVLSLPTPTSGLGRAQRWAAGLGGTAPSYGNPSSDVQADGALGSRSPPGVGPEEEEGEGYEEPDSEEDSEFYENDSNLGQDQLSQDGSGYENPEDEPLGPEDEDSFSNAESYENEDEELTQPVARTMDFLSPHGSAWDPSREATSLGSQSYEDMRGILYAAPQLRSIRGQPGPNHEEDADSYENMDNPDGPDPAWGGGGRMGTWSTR
Test: told from antigen-specific IFN-γ release of transduced T cells on CD19+ and/or CD22+ cell lines
From the text: Primary T cells were mock-transduced or transduced with a lentiviral vector encoding the anti-CD19 anti-CD22 caTCR-7-2a construct. The transduced T cells were mixed with K562 (CD19 CD22 double negative), K562-CD22 (K562 transduced with CD22), K562-CD19 (K562 transduced with CD19), Raji (which expresses both CD19 and CD22), or Raji CD19 K/O (Raji with CD19 knocked out) cells at an effector-to-target ratio of 2.5:1. T-cells secrete IFN-γ when activated by TCR engagement with target ligand. The cytokine release levels of IFN-γ were measured and used as an indicator of the receptor's signaling potential (the higher levels, the higher the receptor's signaling potential and cytotoxic T cell activity). Cytokine concentrations were measured after 16 hours of co-culture using the Magpix multiplex system (Luminex) with the Bio-plex Pro Human Cytokine 8-plex Assay (BioRad).
T cells expressing the anti-CD19 anti-CD22 caTCR-7-2a construct specifically activated IFN-γ secretion when incubated with K562 expressing either CD19 or CD22 antigens. […] In vitro killing

B1: anti-CD19 anti-CD22 caTCR-7-2a (other)
chain 1: DIQLTQSPSSLSTSVGDRVTITCQASHDIRNYLNWYQQKPGKAPNLLIYAASNLQTGVPSRFSGRGSGTDFTLTISSLQPEDIATYYCQQYDGLPLTFGQGTRLEIKRGGGGSEVQLVQSGAEVKKPGESLKISCKGSGYSFTSYWIGWVRQMPGKGLEWMGIIYPGDSDTRYSPSFQGQVTISADKSISTAYLQWSSLKASDTAMYYCARQVWGWQGGMYPRSNWWYNLDSWGQGTLVTVSSASTKGPSVFPLAPSSKSTSGGTAALGCLVKDYFPEPVTVSWNSGALTSGVHTFPAVLQSSGLYSLSSVVTVPSSSLGTQTYICNVNHKPSNTKVDKRVEPKSCEVKTDSTDHVKPKETENTKQPSKSCHKPKAIVHTEKVNMMSLTVLGLRMLFAKTVAVNFLLTAKLFFL
chain 2: QVQLVESGGGLVQPGGSLRLSCAASGFTFSNYAMSWVRQAPGKGLEWVSSISGSGGSTYYADSVKGRFTISRDTSKNTLYLQMNSLRAEDTAVYYCARYGSAAWMDSWGQGTLVTVSSGGGGSLPVLTQPPSVSVAPGKTARITCGGNNIGSKSVHWYQQKPGQAPVLVVYDDSDRPSGIPERFSGSNSGNTATLTISRVEAGDEADYYCQVWDSSSDYVVFGGGTKLTVLGQPKANPTVTLFPPSSEELQANKATLVCLISDFYPGAVTVAWKADGSPVKAGVETTKPSKQSNNKYAASSYLSLTPEQWKSHRSYSCQVTHEGSTVEKTVAPTECSPIKTDVITMDPKDNCSKDANDTLLLQLTNTSAYYMYLLLLLKSVVYFAIITCCLLRRTAFCCNGEKS
notes: Bispecific chimeric antibody-TCR construct expressed on transduced primary T cells
- binding result: binds
